Consider 16 molecules from US10251952B2, “Humanized anti-tau(pS422) antibody brain shuttles and use thereof” (Hoffmann-La Roche Inc., priority 2014, dated 2019).

Substitutions are numbered along the chain they refer to.

B1: VH14 with VL09: anti-human tau(pS422) antibody; VH SEQ ID NO: 50, VL SEQ ID NO: 33 (antibody, V domains shown)
VH: QQLVESGGGLVQPGGSLRLSCAASGFSLSSNAINWVRQAPGKGLEWVGYIAVSGNTYYASWAKGRFTISRDNSKNTLYLQMNSLRAEDTAVYYCGKSNIWGPGTLVTVSS
VL: DIQMTQSPSTLSASVGDRVTITCRASQSVRTNKLAWYQQKPGKAPKRLIYSASTLESGVPSRFSGSGSGTEFTLTISSLQPDDFATYYCLGYFDCSIADCVAFGGGTKVEIK
modifications: humanized sequence
B2: VH14 with VL12: anti-human tau(pS422) antibody; VH SEQ ID NO: 50, VL SEQ ID NO: 34 (antibody, V domains shown)
VH: B1 VH
VL: B1 VL with T10S, S28G, Y37F, K43Q, A44P, E56Q, D82E
modifications: humanized sequence
B3: VH14 with VL15: anti-human tau(pS422) antibody; VH SEQ ID NO: 50, VL SEQ ID NO: 35 (antibody, V domains shown)
VH: B1 VH
VL: B1 VL with T10S, S28G, Y37F, K43Q, A44P, E56Q, D82E, C95S, C100S
modifications: humanized sequence
B4: VL17 with VH24: anti-human tau(pS422) antibody; VH SEQ ID NO: 56, VL SEQ ID NO: 37 (antibody, V domains shown)
VH: EVQLLESGGGLVQPGGSLRLSCAASGFSLSSNAINWVRQAPGKGLEWVGYIAVSGNTYYADSVKGRFTISKDNSKNTVYLQMNSLRAEDTAVYYCGKSNIWGQGTLVTVSS
VL: B1 VL with T10S, A25S, Y37F, K43Q, A44P, E56D, S57F, D82E
modifications: humanized sequence
B5: VL19 with VH01: anti-human tau(pS422) antibody; VH SEQ ID NO: 46, VL SEQ ID NO: 38 (antibody, V domains shown)
VH: B1 VH with P102Q
VL: AQVMTQSPSSLSASVGDRVTITCRSSQSVRTNKLAWFQQKPGQPPKRLIYSASTLDFGVPSRFSGSGSGTEFTLTISSLQPEDFATYYCLGYFDCSIADCVAFGGGTKVEIK
modifications: humanized sequence
B6: VL17 with VH22: anti-human tau(pS422) antibody; VH SEQ ID NO: 54, VL SEQ ID NO: 37 (antibody, V domains shown)
VH: B4 VH with K71R, V78L
VL: B5 VL with A1D, Q2I, V3Q
modifications: humanized sequence
B7: VL17 with VH18: anti-human tau(pS422) antibody; VH SEQ ID NO: 52, VL SEQ ID NO: 37 (antibody, V domains shown)
VH: B1 VH with S60D, W61S, A62V, P102Q
VL: B5 VL with A1D, Q2I, V3Q
modifications: humanized sequence
B8: VL17 with VH02: anti-human tau(pS422) antibody; VH SEQ ID NO: 47, VL SEQ ID NO: 37 (antibody, V domains shown)
VH: B1 VH with Q2S, L3V, V4L
VL: B5 VL with A1D, Q2I, V3Q
modifications: humanized sequence
B9: VL17 with VH23: anti-human tau(pS422) antibody; VH SEQ ID NO: 55, VL SEQ ID NO: 37 (antibody, V domains shown)
VH: B4 VH with L4V, A24V
VL: B5 VL with A1D, Q2I, V3Q
modifications: humanized sequence
B10: VL19 with VH18: anti-human tau(pS422) antibody; VH SEQ ID NO: 52, VL SEQ ID NO: 38 (antibody, V domains shown)
VH: B1 VH with S60D, W61S, A62V, P102Q
VL: B5 VL
modifications: humanized sequence
B11: VL19 with VH19: anti-human tau(pS422) antibody; VH SEQ ID NO: 53, VL SEQ ID NO: 38 (antibody, V domains shown)
VH: B1 VH with S60D, W61S, A62V, R70K, P102Q
VL: B5 VL
modifications: humanized sequence
B12: VL17 with VH00: anti-human tau(pS422) antibody; VH SEQ ID NO: 11, VL SEQ ID NO: 37 (antibody, listed as Oryctolagus cuniculus, V domains shown)
VH: QSVEESGGRLVTPGTPLTLTCTVSGFSLSSNAINWVRQAPGKGLEWIGYIAVSGNTYYASWAKGRFTISKASTTVDLKMTSPTAEDTGTYFCGKSNIWGPGTLVTVSL
VL: B5 VL with A1D, Q2I, V3Q
modifications: humanized sequence
B13: VL17 with VH01: anti-human tau(pS422) antibody; VH SEQ ID NO: 46, VL SEQ ID NO: 37 (antibody, V domains shown)
VH: B1 VH with P102Q
VL: B5 VL with A1D, Q2I, V3Q
modifications: humanized sequence
B14: VL19 with VH22: anti-human tau(pS422) antibody; VH SEQ ID NO: 54, VL SEQ ID NO: 38 (antibody, V domains shown)
VH: B4 VH with K71R, V78L
VL: B5 VL
modifications: humanized sequence
B15: VL19 with VH24: anti-human tau(pS422) antibody; VH SEQ ID NO: 56, VL SEQ ID NO: 38 (antibody, V domains shown)
VH: B4 VH
VL: B5 VL
modifications: humanized sequence
B16: VL19 with VH23: anti-human tau(pS422) antibody; VH SEQ ID NO: 55, VL SEQ ID NO: 38 (antibody, V domains shown)
VH: B4 VH with L4V, A24V
VL: B5 VL
modifications: humanized sequence

The target of one test is human tau(pS422) (Homo sapiens, UniProt P10636, S739X). Briefly: BIAcore kinetic screening and kinetic rates of humanized VH/VL combinations. The note with it: 25 °C; VH14 or VH20 with VL variants. In kind it is binding. The procedure:
In the following Table characteristics of the different humanized variants of the rabbit light chain variable domain in combination with the humanized heavy chain variable domains VH14 and VH20, respectively, are shown. Binding partner was human tau(pS422).
Kinetic screening was performed according to Schraeml et al. (Schraeml, M. and M. Biehl, Methods Mol. Biol. 901 (2012) 171-181) on a BIAcore 4000 instrument, mounted with a BIAcore CM5 sensor. The BIAcore 4000 instrument was under the control of the software version V1.1. A BIAcore CM5 series S chip was mounted into the instrument and was hydrodynamically addressed and preconditioned according to the manufacturer's instructions. The instrument buffer was HBS-EP buffer (10 mM HEPES (pH 7.4), 150 mM NaCl, 1 mM EDTA, 0.05% (w/v) P20). An antibody capture system was prepared on the sensor surface. A polyclonal goat anti-human antibody with human IgG-Fc specificity (Jackson Lab.) was immobilized at 30 μg/ml in 10 mM sodium acetate buffer (pH 5) to spots 1, 2, 4 and 5 in the instrument's flow cells 1, 2, 3 and 4 at 10,000 RU using NHS/EDC chemistry. In each flow cell the antibodies were captured on spot 1 and spot 5. Spot 2 and spot 4 were used as reference spots. The sensor was deactivated with a 1 M ethanolamine solution. Humanized antibody derivatives were applied at concentrations between 44 nM and 70 nM in instrument buffer supplemented with 1 mg/ml CMD (carboxymethyldextrane). The antibodies were injected at a flow rate of 30 μl/min for 2 minutes. The capture level (CL) of the surface-presented antibodies was measured in rel. response units (RU). The analytes in solution, phosphorylated human tau protein, non-phosphorylated human tau protein and the phosphorylated human tau mutant protein T422S were injected at 300 nM for 3 minutes at a flow rate of 30 μl/minute. The dissociation was monitored for 5 minutes. The capture system was regenerated by a 1 minute injection of 10 mM glycine buffer, pH 1.7 at 30 μL/minute over all flow cells. Two report points, the recorded signal shortly before the end of the analyte injection, denoted as binding late (BL) and the recorded signal shortly before the end of the dissociation time, stability late (SL), were used to characterize the kinetic screening performance. Furthermore, the dissociation rate constant kd (1/s) was calculated according to a Langmuir model and the antibody/antigen complex half-life was calculated in minutes according to the formula ln(2)/(60*kd). The molar ratio (MR) was calculated according to the formula MR=(Binding Late (RU))/(Capture level (RU))*(MW(antibody)/(MW(antigen)). In case the sensor was configured with a suitable amount of antibody ligand capture level, each antibody should be able to functionally bind at least to one analyte in solution, which is represented by a molar ratio of MR=1.0. Then, the molar ratio is also an indicator for the valence mode of analyte binding. The maximum valence can be MR=2 for an antibody binding two analytes, one with each Fab valence.
In another embodiment, kinetic rates were determined at 25° C. and 37° C. using the same experimental setup, but using multiple concentration series of each analyte in solution at 0 nM (buffer), 1.2 nM, 3.7 nM, 11.1 nM, 33.3 nM, 100 nM and 300 nM. From the concentration-dependent binding behavior the kinetic data was calculated using the BIAcore evaluation software according to the manufacturer's instructions and a Langmuir 1.1 model with RMAX global.
On the technique in general: In SPR one partner is held on a chip, and binding of the other changes the refractive index at the surface.
B1: the “kd [1/s]” value is on record as 2.35E−03. 1/s and the “t/2 diss” value worked out at 5 min.

Turning to B2, the “kd” value was 0.00248 s⁻¹ and the “t/2 diss” value was found to be 5 min.

In the case of B3, the “kd” value came out at 0.00363 s⁻¹ and the “t/2 diss” value is 3 min.

Still in this test, the particulars now being: 25 °C; VL17 or VL19 with VH variants.
Regarding B4, the “kd” value was found to be 0.00079 s⁻¹ and the “t/2 diss” value is on record as 15 min.

Regarding B5, the “kd” value turned out to be 0.0019 s⁻¹ and the “t/2 diss” value is listed as 6 min.

Turning to B6, the “kd” value was 0.002 s⁻¹ and the “t/2 diss” value is 6 min.

For B7, the “kd” value came to 0.0023 s⁻¹ and the “t/2 diss” value is 5 min.

For the molecule B8, the “kd” value stood at 0.00371 s⁻¹ and the “t/2 diss” value was determined as 3 min.

Consider B9, for which the “kd” value is 0.0007 s⁻¹ and the “t/2 diss” value is reported as 17 min.

Turning to B10, the “kd” value was 0.0019 s⁻¹ and the “t/2 diss” value came out at 6 min.

Turning to B11, the “kd” value came out at 0.002 s⁻¹ and the “t/2 diss” value was 6 min.

B12: the “kd” value amounted to 0.000498 s⁻¹ and the “t/2 diss” value came to 23 min.

Take B13: the “kd” value turned out to be 0.0023 s⁻¹ and the “t/2 diss” value was 5 min.

As to B14, the “kd” value was 0.0021 s⁻¹ and the “t/2 diss” value was determined as 6 min.

Regarding B15, the “kd” value was found to be 0.00063 s⁻¹ and the “t/2 diss” value is 18 min.

B16: the “kd” value came to 0.00057 s⁻¹ and the “t/2 diss” value stood at 20 min.
